The results in this text go back to the nanobody polyreactivity screen of Harvey et al. (2022).

This data set in a line: yeast display, Sf9 membrane polyspecificity reagent, FACS + sequencing; frameworks hold sequencing errors. The gist of the method: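 In a synthetic yeast display library (Saccharomyces cerevisiae BJ5465), nanobody expression was induced with galactose for 36–48 hours. FACS gates were set low and high (top ~1%) using anti-HA fluorescence for expression and streptavidin fluorescence for binding of the Sf9 membrane reagent. Each polyreactivity label is drawn from the gate of origin.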
For “QVQLVESGGGLVHAGGSLRLSCAASGNIFKRNAMGWYRQAHGKERELVAAISGSGVRTYYADSVKGRFTISRDNAKNSVYLQMNSLKPEDTAVYYCNAEIRYSAWNWLSYEYWGQGTQVTVSS”, the “polyreactivity (PSR sort gate)” value is “high polyreactivity”.
The same measure for “QVQNVESGGGLVQARGSLRLSCAASGRTFTESDMGRYRQAPGKERELVAAITSVGSTYYADSVKGRFTISRYNAKNTVYLQMNSLKPEDTAVYYCAAEWQNTNMDYWGQGTQVTVSS”: “low polyreactivity”.
The same measure for “QVQLVESGRGLVQAGGSLRLSCAASGRIFDRNAMGWYRDAPGKERELVAAIDDSVGDTSYADSVKGRFTISRDNAKNTVYLQMNSLKPEDTSVFYCNAGYADFVTYPRYYYWGQGTQVTVSS”: “low polyreactivity”.
The same measure for “QVQLVESGGGLVQAGGSLRLSCAASGRTFYRNDRGWYRQAPGKERELVAAITSSGGTTYADSVKGRFTISRDNAKNTVYLQMNSLKPEDTAVYYCNTVLYAYWQWDYEFDYWGQGTQVTVSS”: “low polyreactivity”; for “QVQLVESGGGLVQAGGSLRLTCAASGFIFEHYAMGWYRQAPGKERELVARISWRGGSTYYADSVKGRFTISRDNAKNTVYFQMNSLKPEDTAVYYCNAQEVVYFGYYPSDYWGQGTQVTVSS”: “low polyreactivity”; for “QVQLVESGGGLVQAGGSLSLSCDASGRIFVVKAMGWYRQAPGKERELVAAITRRGGSTYADSVKGRFTISRDNAKNTVYLQMNSLKPEDTAVYYCNAESYYGIFSYKYDYWGQGTQVTVSS”: “high polyreactivity”.
For “QVQLVESVGGLVQAGGSLRLSCAASGNIFSSYAMGWYRQAPGKERELVARITTSAGRTYDADSVKGRFTISRDNAKNTVDLQMNSLKPEDTPVYYCAVDWYGSYGYGGSQNSDYWGQGTQVTVSS”, the “polyreactivity (PSR sort gate)” value is reported as “high polyreactivity”.
Take “QVQLVESGGGLVQAGGSLRLSCAASGRIFSYNTLMRWYRQAPGKERELVAAITFSSASTYYADSVKGRFTISRDNAKNTVYLQMNSLKPEDTAVYYCAAAIRSQSSKYYYWGQGTQVTVSS”: the “polyreactivity (PSR sort gate)” value is given as “low polyreactivity”.
With “QVQLVESGGGLVQAGGSLRLSCAASGSIFSRYAMGWYRQAPGKERELVAAITWSGGSTYYADSVKGRFTISRDNAKNTVYLQMNSLKPEDTAVYYCAAVGYAPYNHRYDYWGQGTQVTVSS” the entry was “low polyreactivity”; with “QVQLVESGGGLVQAGGSLRLSCAASGSILDGNAMGWYRQAPGKERELVAAITRSGGRTYYADSVKGRFTISRDNAKNTVYLQMNSLKPEDTAVYYCNVDVPGVRFEYWGQGTQVTVSS”, “low polyreactivity”; with “QVQLVESGGGLVQAGGSLRLSCAASGSTSYYYAMGWYRQAPGKERELVAAISYSGGRTYYADSVKGRFTISRDNAKNTVYLQMNSLKPEDTAVYYCAKTFRGQPYLRYRYYYWGQGTQVTVSS”, “high polyreactivity”.
On to “QVQLVESGGGLVQAGGSLRLSCAASGNSFYSYAMGRYRQAPGKERELVAAITIDGSTTYADSVKGRFTISRDNAKNTVYLQMNSLKPEDTAVSYCNADGFTSDPYDSDDWGQGTLVTVSS”, for which the “polyreactivity (PSR sort gate)” value is recorded as “low polyreactivity”.
The same measure for “QVQLVESGGGLVQAGGSLRLSCDASGIIFVKYAMGWYRQAPGKERELVAAITSGGSTYYADSVKGRFTISRDNAKNTVYLQMNSLKPEDTAVYYCNADTWFLYFFTINGYWGQGTQVTVSS”: “high polyreactivity”; for “QVQLVESGGGLVQAGGSLRLSCAASGSTFTSNAMGWYRQAPGKERELVASISGSGGRTDYADSVKGRFTISRDNAKNTVYLQMNSLKPEDTAVYYCNAESRNLYSTQFDYWGQGTQVTVSS”: “low polyreactivity”.
Turning to “QVQLVESGGVLVQAGGSLRLSCAASGSTFLWYAMGWYRQAPGKEREMVAAISRSGGNTYYADSVKGRFTISRDNAKTSVYLEMNSLNPEDTAVYDCAARKLYGSPEHGYGGQGTQVTVSS”, the “polyreactivity (PSR sort gate)” value is listed as “high polyreactivity”.
With “QVQLVESGGGLVQAGGSLRLSCAASGSIFYTYAMGWSRQAPGKEREFVAAITSSGGSTYYADSVKGRFTISRDNAKNTVYLQMNSLKPEDTAVYYCAADSGSTSEYEYWGQGTQVTVSS” the entry was “low polyreactivity”.
The same measure for “QVQLVESGGGLVQAGGSLRLSCAASGSNFRLYAMGWYRHAPGKERELVATISGSAGRTYYADSVKGRFTISRDYAKNTVYLQMNSLKPEDTAVYYCAARWYQEYFWGQGTQVTVSS”: “high polyreactivity”; for “QVQLVESAGGLVQAGGSLRLSCAASGIIFIYYTMGWYRQAPGKERELVAVITTSGDGTYYADSVKGRFTISRDNAKNTVYFQMNSLKPEDTAVYYCAASYSTWVSSRNDYWGQGTQVTVSS”: “low polyreactivity”.
With “QVQLVESGRGLVQAGGSLRLSCAASGSTFPPSAMGWYRQAPGKERELVAAIDVSGGTTFYADSVKGRFTISRDNAKNTVYLQMNSLKPEDTAVYYCAIGSVSARFEYWGQGTQVTVSS” the entry was “low polyreactivity”; with “QVQLVESGGGLVQAGGSLRLSCAASGSTCASYAMGWYRQAPGKERELVAAITDSGGSTYYADSVKGRFTISRDNAKNTVYLQMNSLKPEDTAVYYCAAYGAYFSYHDYEYWGHGTQVTVSS”, “low polyreactivity”.
“QVQLVESGGGFVQAGGSLRLSCAASVSILWWYAMGWSRKATVKERELVAAITWSGTSTYYADSVKGRFTISRVNGKNTLYLQMISLKPEETAVYYCAVRSYVNGGWYDYWGQGTQGTVSS”: the “polyreactivity (PSR sort gate)” value is listed as “high polyreactivity”.
With “QVQLEESGGGLVQAGGSLRLSCAASGRIFATNAMGWYRPAPATERELVAAISSSGGPTYYADSVKGRFTISRDNAKNTVYLQMNSLIREATAVYYCARVPITNDQYSHYYYWGQGTQVTVSS” the entry was “high polyreactivity”; with “QVQLVESGGGLVQAGGSLRLSCAPSGYIIRQYAMGWYRQAPGKEREFVAAISQTGGSTYYADSVKGRFTISRDNAKNTVYLQMNSLKPEDTAVYYCAARYRGQRYRKLDYWGQGTQVTVSS”, “high polyreactivity”.
As for “QVQLVESGGGLVQAGGSLRLSCAASGRIFWANAMGWYRQAPGKERELVAAISNSGVSTYYADSVKGRFTISRDNAKHTVYLQMNSLKPEDTAVYYCAADRYRKYYYWGQGTLVTVSS”, the “polyreactivity (PSR sort gate)” value was “high polyreactivity”.
The same measure for “QVQLVESGGGLVHAGGSLRLSCAASGSIFKYYAMGWYRQAPGKERELVAAISSGGSTNYADSVKGRFTISRDNAKNTVYLQMNSLKPEDTAVYYCAVDRYCWLDGYDYWGQGTQVTVSS”: “high polyreactivity”.
With “QVQLVESGGGLVQAGGSLRLSCAASGRIFVKNAMGWYRQAPGKERELVAAISSSSGSTYYADSVKGRFTISRDNAKNTVYLQMNSLKPEDTAVYYCATVRWYYSRPRPTTAYGYWGQGTQVNVSS” the entry was “high polyreactivity”; with “QVQLVESGGGLVQAGGSLRLSCAASGSIFRWYTMGWYRQAPGKERELVAAISRSGGSTYYADSVKGRFTISRDNAKNTVYLQMNRLKPEDTAVYYCAADKFRHPYWDRYIYFHYDYWGQGTQVTVSS”, “low polyreactivity”.
The same measure for “QVQLVESGGGLVQAGGSLRLSCAASGRTFGRNAMGWYRQAPGKERELVAAISLRGGRTYYADSVKGRFTISRDNAKNTVYLQMNSLKPEDTAVYYCAAVQPVGLYPRTKYYYWGQGTQVTVSS”: “high polyreactivity”; for “QVQLVESGGGLVQAGGSLRLSCAASGFTFAFYAMGRYRQAPGKERELVAAISRRGGSTTYADSVKGRFTISRDNAKNTVYLQMNSLKPEDTAVYYCNAVSTRNPGPDYYYWGQGTQVTVSS”: “high polyreactivity”.
As to “QVQLVESGGGLVQAGGSLRLRCGASGFIFDQYAMGWYRQAPGKERELVAAITYSGGGTYYADSVKGRFTISRDNAKNTVYLQMNSLKPEDTAVYYCADLFGYSLYDAQYDYWGQGTQVTVSS”, the “polyreactivity (PSR sort gate)” value is given as “low polyreactivity”.
Turning to “QVQLVESGGGLVQAGGSLRLSCAASGRILPYYAMGWYRPAPGKERELVAALTGGGGSTYYADSVKGRFTISRDNAKNTVYLQMNSLKPEDTAVYYCAKPRGRASLALYRFSLYYYWGQGTQVTVSS”, the “polyreactivity (PSR sort gate)” value is on record as “high polyreactivity”.
Regarding “QVQLVESGGGLVQAGGSLRLSCAASGNIFSDNAMGWYRQAPGKERELVAAITASTSDTYYADSVKGRFTISRDNAKNSVYLQMNSLKPEDTAVYYCAADSRGFQLFDYWGQGTQVTVSS”, the “polyreactivity (PSR sort gate)” value is given as “low polyreactivity”.
For “QVQLVESGGGLVQAGGSLRLSCAASGSTFRDYAMGWYRQAPGKERELVAAITSGGTTDYADSVKGRFTISRYNAKNTVYLQMISLKPEDTAVYYCNKDGVVAGYQYDYWGQGTQVTVSS”, the “polyreactivity (PSR sort gate)” value is given as “low polyreactivity”.
The same measure for “QVQLVESGGGLVQAGGSLRLSCAASGSIFVGNAMGWYRQAPGKEREFVASISWDGTTYYADSVKGRFTISRDNAKNTVYLQMNSLKPEDTAVYYCAADVSTYGAQATEGTDLEYDYWGQGTLVTVSS”: “low polyreactivity”; for “QVQLVESGGGLVQAGGSLRLSCAASGLTFTHYALGWYRQAPGKERELVAAIAWRGGSTYYADSVKGRFTISRDNAKNTVYLQMNSLKPEDTAVYYCAVARSYRGEMDYWGQGTQVTVSS”: “low polyreactivity”.
The same measure for “QVQLVESGGGLVQAGGSLRLSFAPSGRIVPNAMGWYRQAPGKDREMVAAISRSGGSTYYADSVKGRFTISRDNAKNTVYLQMNSLKPEDTAVYYCAKRSTSQSLQGEYWGQGTQVTVSS”: “high polyreactivity”; for “QVQLVESGGGLVQAGGSLRLSCAASGRIFKVYAMGWYRQAPGKERELVAAISSRGGSTYYADSVKGRFTISRDNAKNTVYLQMNSLKPEDTAVYYCAALVTWLHPKGDYWGQGTQVTVSS”: “high polyreactivity”; for “QVQLVESGGGLVQAGGSLRLSCAASGSTFYTNDMGWYRQAPGKERELVAAITSAGNTNYADSVKGRFTISRDNAKNTVYLQMNSLKPEDTAVYYYYYYQYDYWGQGTQVTVSS”: “low polyreactivity”.
With “QVQLVDSGGGLVQAGGSLRLSCAASGFIFPSYVMGWYRQAPGKERELVATISRTGGSTYYADSVKGRYTISRDNAKNTVYLQMNSLKPEYTAVYFCAAYRYSYLQLMDYWGQGTQVTVSS”, the “polyreactivity (PSR sort gate)” value is given as “high polyreactivity”.
With “QVQLVESGGGLVQAGGSLRLSCAASGRIFLWYAMGWYRQAPGKERELVASITRSGVTTYYADSVKGRFTISRDNAKNTVYLQMNSLKPEDTAVYYCAAELYGWSGDTNDYWGQGTHVTVSS”, the “polyreactivity (PSR sort gate)” value was “low polyreactivity”.
The same measure for “QVQLVESGGGLVQAGGSLRLTCAASGSIVWYAMGSYRQATGKEREVVAAISRRGGSTYYADSVKGRFTISRDNAKNTVYLQSKSLKSEDTAVYYCADRPAREEYDYWGQGTQVTVSS”: “high polyreactivity”.
